The text below walks through data of patent publication US20150266925A1 (COMPLIX, published 2015).

Broadly, the Kd is the equilibrium constant for the complex coming apart. A high value points to weaker binding. Usually koff stands for a measure of how fast the partners let go of each other. Read a high koff as a short-lived complex. What is called kon is the rate constant with which the complex forms. High values mean faster complex formation, low ones slower complex formation.

The target in assay [1] is T1, human IL-23 (human, UniProt Q9NPF7 20-189; P29460 23-328).
T1 construct: Bought recombinant heterodimeric cytokine (eBioscience 34-8239-85 for panning; R&D Systems for the splenocyte assay); also called hIL-23; hIL23
T1 sequence (looked up) 1: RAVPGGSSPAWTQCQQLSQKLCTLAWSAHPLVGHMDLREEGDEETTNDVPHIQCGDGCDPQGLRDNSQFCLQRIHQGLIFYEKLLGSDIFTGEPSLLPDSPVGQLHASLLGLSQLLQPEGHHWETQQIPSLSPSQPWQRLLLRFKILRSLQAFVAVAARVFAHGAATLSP
T1 sequence (looked up) 2: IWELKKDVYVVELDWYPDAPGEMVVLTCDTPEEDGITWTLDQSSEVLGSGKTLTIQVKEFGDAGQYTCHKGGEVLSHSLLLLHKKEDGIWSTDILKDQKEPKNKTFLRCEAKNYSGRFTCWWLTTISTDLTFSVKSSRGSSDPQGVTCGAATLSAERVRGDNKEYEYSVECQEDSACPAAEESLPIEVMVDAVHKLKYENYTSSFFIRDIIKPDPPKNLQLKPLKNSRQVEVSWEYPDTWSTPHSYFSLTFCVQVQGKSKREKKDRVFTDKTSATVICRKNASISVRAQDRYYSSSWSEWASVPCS
Nature of the assay: standard equilibrium ELISA. (An ELISA detects its analyte on a solid surface through an enzyme-linked reagent.)

Assay [2] has as its target T1, human IL-23. Nature of the assay: kinetic ELISA, soluble polypeptide.
Assay [3] has as its target T1, human IL-23. The assay can be described thus: equilibrium ELISA, soluble polypeptide.
Assay [4] deals with T1, human IL-23. The assay can be described thus: cell-based or functional assay.
The target of assay [5] is T1, human IL-23. Nature of the assay: standard equilibrium ELISA, soluble polypeptide; MA12.
The target in assay [6] is T1, human IL-23. The assay can be described thus: phage-coated ELISA, clone displayed on phage.

B1: MA12 (designed binder)
chain: MSIQEIQKEIAQIQAVIAGIQKYIYTMTGGSGGSGGGGSGGSGGMSIEEIQKQIAAIQCQIAAIQKQIYAMTGSGGGGSGGSGGGGSGMSIEEIQKQIAAIQEQILAIYKQIMAMVT
notes: also called MAl2
In the case of B1, the “factor better than the non-matured variant C159” value in assay [1] amounted to 38 fold. In addition, the Kd was found to be 0.26 nM in assay [2], 0.11 nM in assay [3], 0.1 nM in assay [5] and 0.08 nM in assay [6]. In assay [2], this molecule gave a koff of 0.00021 s⁻¹. This molecule yielded a kon in assay [2] of 810000 M⁻¹ s⁻¹. Further, the “functional KD (DB fKD), DB cell assay: Stat3 phosphorylation induced by human IL-23; n data = 2” value in assay [4] came to 0.35 nM. Besides, the “functional KD (Spleno fKD), mouse splenocyte assay: IL-17 production induced by human IL-23; n data = 5” value in assay [4] was 0.13 nM.
